Source: US20040265235A1, “Magnetic resonance contrast-enhancing agents and method for detecting and imaging artherosclerotic plaque” (priority 2003, published 2004)

Assay: MR T1 relaxivity of contrast agents
Format: physicochemical
Settings: globular versus elongated conformation
Procedure: A low relaxivity or long relaxation time is associated with an elongated molecule such as a highly substituted Gd-DTPA-PLL, in which the Gd can rotate rapidly, having a relaxivity of about 8 sec^−1 mM^−1. When the relaxivity of a peptide contrast agent was high, the uptake coefficient of such an agent was invariably low, evidently due to the absence of a reptation movement of the contrast agent molecule, resulting in the exclusion of the contrast agent from narrow passages. Thus, it is important to establish that the peptides being compared for optimum length are all of the same conformation. Relaxivity values of the Gd-PLL for various lengths were tested to be between 7.5 and 10 for average chain length of 92, 219, 455, 633, and 1163 residues, in a 2 Tesla magnet (2 T) at 80 MHz and 23° C.

Substance: albumin
- relaxivity: about 15 sec^−1 mM^−1
